The source of these data is paper PMC5651247, “Factor H-Related (FHR)-1 and FHR-2 Form Homo- and Heterodimers, while FHR-5 Circulates Only As Homodimer in Human Plasma” (Frontiers in Immunology, 2017).

The chains are these.
B1: Recombinant human FHR-1 (rFHR-1), CFHR1*A allotype, C-terminal 6×His (natural protein, UniProt Q03591 19-330, looked up)
chain: EATFCDFPKINHGILYDEEKYKPFSQVPTGEVFYYSCEYNFVSPSKSFWTRITCTEEGWSPTPKCLRLCFFPFVENGHSESSGQTHLEGDTVQIICNTGYRLQNNENNISCVERGWSTPPKCRSTDTSCVNPPTVQNAHILSRQMSKYPSGERVRYECRSPYEMFGDEEVMCLNGNWTEPPQCKDSTGKCGPPPPIDNGDITSFPLSVYAPASSVEYQCQNLYQLEGNKRITCRNGQWSEPPKCLHPCVISREIMENYNIALRWTAKQKLYLRTGESAEFVCKRGYRLSSRSHTLRTTCWDGKLEYPTCAKR
notes: also called native rFHR-1; unlabeled rFHR-1; not shown: 6×His, C-terminal, kept
B2: Recombinant human FHR-2 (rFHR-2), C-terminal 6×His (natural protein, UniProt P36980 19-270, looked up)
chain: EAMFCDFPKINHGILYDEEKYKPFSQVPTGEVFYYSCEYNFVSPSKSFWTRITCAEEGWSPTPKCLRLCFFPFVENGHSESSGQTHLEGDTVQIICNTGYRLQNNENNISCVERGWSTPPKCRSTISAEKCGPPPPIDNGDITSFLLSVYAPGSSVEYQCQNLYQLEGNNQITCRNGQWSEPPKCLDPCVISQEIMEKYNIKLKWTNQQKLYSRTGDIVEFVCKSGYHPTKSHSFRAMCQNGKLVYPSCEEK
modifications: DyLight 488 or DyLight 594, 3 to 4 labels per monomer (the labelled copies of the FRET assays; unlabelled where added in excess and in the ELISA)
notes: Complement factor H-related protein 2 (FHR-2), human; Labelled and unlabelled copies of the same construct are kept as one molecule; also called rFHR-2^488; rFHR-2^594; not shown: 6×His, C-terminal, kept
B3: Recombinant human FHR-5 (rFHR-5), C-terminal 6×His (natural protein, UniProt Q9BXR6 19-569, looked up)
chain: EGTLCDFPKIHHGFLYDEEDYNPFSQVPTGEVFYYSCEYNFVSPSKSFWTRITCTEEGWSPTPKCLRMCSFPFVKNGHSESSGLIHLEGDTVQIICNTGYSLQNNEKNISCVERGWSTPPICSFTKGECHVPILEANVDAQPKKESYKVGDVLKFSCRKNLIRVGSDSVQCYQFGWSPNFPTCKGQVRSCGPPPQLSNGEVKEIRKEEYGHNEVVEYDCNPNFIINGPKKIQCVDGEWTTLPTCVEQVKTCGYIPELEYGYVQPSVPPYQHGVSVEVNCRNEYAMIGNNMITCINGIWTELPMCVATHQLKRCKIAGVNIKTLLKLSGKEFNHNSRIRYRCSDIFRYRHSVCINGKWNPEVDCTEKREQFCPPPPQIPNAQNMTTTVNYQDGEKVAVLCKENYLLPEAKEIVCKDGRWQSLPRCVESTAYCGPPPSINNGDTTSFPLSVYPPGSTVTYRCQSFYKLQGSVTVTCRNKQWSEPPRCLDPCVVSEENMNKNNIQLKWRNDGKLYAKTGDAVEFQCKFPHKAMISSPPFRAICQEGKFEYPICE
modifications: DyLight 488 or DyLight 594, 3 to 4 labels per monomer (the labelled copies of the FRET assays; unlabelled where added in excess)
notes: Complement factor H-related protein 5 (FHR-5), human; Labelled and unlabelled copies of the same construct are kept as one molecule; also called rFHR-5^488; rFHR-5^594; not shown: 6×His, C-terminal, kept

The target in data set [1] is B2. Briefly: FRET or BRET; monomer exchange: pre-equilibrated 488- and 594-labelled protein, then a >5 times molar excess of unlabelled rFHR added; loss of FRET signal followed; 37°C, PBS with 1 mg/mL IVIg; first-order exponential fit. Conditions: both partners purified.
Data set [2] deals with the molecule itself. The description is as above.
Data set [3] concerns the molecule itself. The experiment in a line: FRET or BRET; monomer exchange: equimolar DyLight 488- and 594-labelled protein mixed and followed in time; 37°C, 200 ng/mL in degassed PBS with 1 mg/mL IVIg; first-order exponential fit. (In BRET a luciferase serves as donor, and the signal depends on an acceptor being close.)

For the molecule B1, the “observed rate constant k of monomer exchange” value in data set [1] was determined as 0.00053 s⁻¹.

With B2, the “observed rate constant k of monomer exchange” value in data set [2] worked out at 0.0004 s⁻¹. Further, the dissociation half-life in data set [3] was less than 30 min. For B3, in data set [2], the “observed rate constant k of monomer exchange” value is 0.0012 s⁻¹. Further, the dissociation half-life in data set [3] was less than 30 min.
